± gives the standard deviation of the averaged measurements.
Experiments:
MCF7 = assay: percentage of EdU-negative (G0-arrested) nuclei per well, 72 h; higher = more G0 arrest; details: reference: sequence is the full UniProt precursor, the tested protein was the secreted form or ectodomain
hTERT-HMEC = assay: as above; details: reference: sequence is the full UniProt precursor, the tested protein was the secreted form or ectodomain
[1] = protein concentration 0.02103 µM
[2] = protein concentration 0.2103 µM
[3] = protein concentration 0.0225 µM
[4] = protein concentration 0.03125 µM
[5] = protein concentration 0.3125 µM
[6] = protein concentration 0.01375 µM
[7] = protein concentration 0.1375 µM
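Also: secreted proteins added to cultured cells, EdU pulse at the end, nuclei found by Hoechst imaging, EdU status from nuclear versus surrounding ring intensity ratio, PBS as neutral control.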

MRVAGAAKLVVAVAVFLLTFYVISQVFEIKMDASLGNLFARSALDTAARSTKPPRYKCGISKACPEKHFAFKMASGAANVVGPKICLEDNVLMSGVKNNVGRGINVALANGKTGEVLDTKYFDMWGGDVAPFIEFLKAIQDGTIVLMGTYDDGATKLNDEARRLIADLGSTSITNLGFRDNWVFCGGKGIKTKSPFEQHIKNNKDTNKYEGWPEVVEMEGCIPQKQD
percentage of EdU-negative (MCF7; [1]): 25.3 ± 0.58%
percentage of EdU-negative (MCF7; [2]): 24.9 ± 1.8%
percentage of EdU-negative (hTERT-HMEC; [1]): 4.78 ± 1.5%
percentage of EdU-negative (hTERT-HMEC; [2]): 5.17 ± 1.7%

MEPLRLLILLFVTELSGAHNTTVFQGVAGQSLQVSCPYDSMKHWGRRKAWCRQLGEKGPCQRVVSTHNLWLLSFLRRWNGSTAITDDTLGGTLTITLRNLQPHDAGLYQCQSLHGSEADTLRKVLVEVLADPLDHRDAGDLWFPGESESFEDAHVEHSISRSLLEGEIPFPPTSILLLLACIFLIKILAASALWAAAWHGQKPGTHPPSELDCGHDPGYQLQTLPGLRDT [Q9NZC2]
percentage of EdU-negative (MCF7; [3]): 23.6 ± 1.7%
percentage of EdU-negative (MCF7; protein concentration 0.225 µM): 29.3 ± 2.9%
percentage of EdU-negative (hTERT-HMEC; [3]): 5.63 ± 0.64%
percentage of EdU-negative (hTERT-HMEC; protein concentration 0.225 µM): 7.25 ± 1.5%

MAPGSRTSLLLAFALLCLPWLQEAGAVQTVPLSRLFDHAMLQAHRAHQLAIDTYQEFEETYIPKDQKYSFLHDSQTSFCFSDSIPTPSNMEETQQKSNLELLRISLLLIESWLEPVRFLRSMFANNLVYDTSDSDDYHLLKDLEEGIQTLMGRLEDGSRRTGQILKQTYSKFDTNSHNHDALLKNYGLLYCFRKDMDKVETFLRMVQCRSVEGSCGF [P0DML2]
percentage of EdU-negative (MCF7; [4]): 28.31 ± 0.052%
percentage of EdU-negative (MCF7; [5]): 25.8 ± 0.31%
percentage of EdU-negative (hTERT-HMEC; [4]): 5.53 ± 0.26%
percentage of EdU-negative (hTERT-HMEC; [5]): 6.34 ± 1.3%

MRVLLAALGLLFLGALRAFPQDRPFEDTCHGNPSHYYDKAVRRCCYRCPMGLFPTQQCPQRPTDCRKQCEPDYYLDEADRCTACVTCSRDDLVEKTPCAWNSSRVCECRPGMFCSTSAVNSCARCFFHSVCPAGMIVKFPGTAQKNTVCEPASPGVSPACASPENCKEPSSGTIPQAKPTPVSPATSSASTMPVRGGTRLAQEAASKLTRAPDSPSSVGRPSSDPGLSPTQPCPEGSGDCRKQCEPDYYLDEAGRCTACVSCSRDDLVEKTPCAWNSSRTCECRPGMICATSATNSCARCVPYPICAAETVTKPQDMAEKDTTFEAPPLGTQPDCNPTPENGEAPASTSPTQSLLVDSQASKTLPIPTSAPVALSSTGKPVLDAGPVLFWVILVLVVVVGSSAFLLCHRRACRKRIRQKLHLCYPVQTSQPKLELVDSRPRRSSTQLRSGASVTEPVAEERGLMSQPLMETCHSVGAAYLESLPLQDASPAGGPSSPRDLPEPRVSTEHTNNKIEKIYIMKADTVIVGTVKAELPEGRGLAGPAEPELEEELEADHTPHYPEQETEPPLGSCSDVMLSVEEEGKEDPLPTAASGK
percentage of EdU-negative (MCF7; [4]): 24 ± 2.9%
percentage of EdU-negative (MCF7; [5]): 24 ± 0.5%
percentage of EdU-negative (hTERT-HMEC; [4]): 5.63 ± 0.33%
percentage of EdU-negative (hTERT-HMEC; [5]): 5.66 ± 0.2%

MESPSAPPHRWCIPWQRLLLTASLLTFWNPPTTAKLTIESTPFNVAEGKEVLLLVHNLPQHLFGYSWYKGERVDGNRQIIGYVIGTQQATPGPAYSGREIIYPNASLLIQNIIQNDTGFYTLHVIKSDLVNEEATGQFRVYPELPKPSISSNNSKPVEDKDAVAFTCEPETQDATYLWWVNNQSLPVSPRLQLSNGNRTLTLFNVTRNDTASYKCETQNPVSARRSDSVILNVLYGPDAPTISPLNTSYRSGENLNLSCHAASNPPAQYSWFVNGTFQQSTQELFIPNITVNNSGSYTCQAHNSDTGLNRTTVTTITVYAEPPKPFITSNNSNPVEDEDAVALTCEPEIQNTTYLWWVNNQSLPVSPRLQLSNDNRTLTLLSVTRNDVGPYECGIQNELSVDHSDPVILNVLYGPDDPTISPSYTYYRPGVNLSLSCHAASNPPAQYSWLIDGNIQQHTQELFISNITEKNSGLYTCQANNSASGHSRTTVKTITVSAELPKPSISSNNSKPVEDKDAVAFTCEPEAQNTTYLWWVNGQSLPVSPRLQLSNGNRTLTLFNVTRNDARAYVCGIQNSVSANRSDPVTLDVLYGPDTPIISPPDSSYLSGANLNLSCHSASNPSPQYSWRINGIPQQHTQVLFIAKITPNNNGTYACFVSNLATGRNNSIVKSITVSASGTSPGLSAGATVGIMIGVLVGVALI
percentage of EdU-negative (MCF7; [3]): 26.7 ± 2.2%
percentage of EdU-negative (MCF7; protein concentration 0.225 µM): 25.3 ± 0.33%
percentage of EdU-negative (hTERT-HMEC; [3]): 5.67 ± 0.092%
percentage of EdU-negative (hTERT-HMEC; protein concentration 0.225 µM): 5.42 ± 0.42%

MSGAPTAGAALMLCAATAVLLSAQGGPVQSKSPRFASWDEMNVLAHGLLQLGQGLREHAERTRSQLSALERRLSACGSACQGTEGSTDLPLAPESRVDPEVLHSLQTQLKAQNSRIQQLFHKVAQQQRHLEKQHLRIQHLQSQFGLLDHKHLDHEVAKPARRKRLPEMAQPVDPAHNVSRLHRLPRDCQELFQVGERQSGLFEIQPQGSPPFLVNCKMTSDGGWTVIQRRHDGSVDFNRPWEAYKAGFGDPHGEFWLGLEKVHSITGDRNSRLAVQLRDWDGNAELLQFSVHLGGEDTAYSLQLTAPVAGQLGATTVPPSGLSVPFSTWDQDHDLRRDKNCAKSLSGGWWFGTCSHSNLNGQYFRSIPQQRQKLKKGIFWKTWRGRYYPLQATTMLIQPMAAEAAS [Q9BY76]
percentage of EdU-negative (MCF7; [6]): 23.9 ± 1.8%
percentage of EdU-negative (MCF7; [7]): 27.4 ± 1.9%
percentage of EdU-negative (hTERT-HMEC; [6]): 5.28 ± 0.74%
percentage of EdU-negative (hTERT-HMEC; [7]): 6.14 ± 0.59%

From the supplement of paper PMC11316812
